How the values were obtained:
Hep3B hepatoma cells = test: Hep3B xenograft animal model with GES1 IgG; format: in vivo, NOD-SCID mice; details: 200 mg/Kg sorafenib orally
Method: GES1 scFv antibody was humanized to obtain humanized IgG antibody (GES1 humanized scFv antibody) and a xenograft animal model was conducted. Hep3B hepatoma cells were cloned to NOD-SCID mice. After the tumors were generated, 1 mg/Kg and 5 mg/Kg of GES1 IgG were i.v. injected into the mice once a week. Another group of the mice were orally administered with 200 mg/Kg sorafenic.

[1] = tested on: HepG2 and HuH-7 ectopic xenografts; details: cited from earlier work
HepG2 cells [2] = test: Proliferation (MTT) assay; format: cell-based, human
Method: A volume of 100 μl DMEM medium containing 5×10^3 HepG2, Hep3B, wherein cells were seeded onto 96-well plates. […] Thereafter, 10 μl of 3-[4,5-dimethylthiazol-2-yl]-2,5-diphenyltetrazolium bromide (MTT; 10 mg/ml) were added to determine the number of surviving cells. The supernatant was removed after 3 hr of incubation, and formazan crystals that had been developed were dissolved by adding of 100 μl acidified 2-propanol/well (0.04 N HCl). Extinction was measured by an automated microtiter plate reader at 540 nm. Unrelated anti-snake venom antibodies (neg) were included in control experiments. […] HepG2 cells were cultured in the medium containing G5S1, GES1, GES6 or control scFv antibodies at final concentrations of 0.1 μM for 1-6 days.

Hep3B cells [3] = test: Soft agar colony formation assay, Hep3B; format: cell-based, human; details: 0.5 μM scFv, 4 weeks
Method: (§1) To determine the clonogenicity of HepG2, Hep3B, cells, 5×10^5 cells were pre-incubated in 2 ml DMEM medium containing anti-GPC3 antibodies at concentrations of 0.5-5 uM for 48 hr. Thereafter, cells were harvested, counted and transferred into semi-solid medium supplemented with 0.8% DMEM-methylcellulose and 30% FBS. Finally, 1 ml of the semi-solid medium containing 5×10^3 individual type of cell was plated onto 3.5 cm Petri-dishes. Triplicated Petri-dishes per treatment protocol will be cultivated for 5-7 days under standard conditions. Colony formation (clusters of >30 cells) will be visualized by staining with crystal violet and scored by an inverted microscope. […] The effect of GPC3 scFv on anchorage independent growth of HepG2 and Hep3B cells was explored. Hepatoma cells were treated with 0.5 μM of G5S1, GES1 or α-RTS6 (neg) scFv antibodies for 1 hr and suspended in medium containing 0.4% low melting agarose and plated onto solidified 0.9% agarose in medium at a density of 1×10^5 cells per dish. After incubating for 4 weeks, the number of colonies was counted and recorded. […] The exact reason for the distinct inhibition on 2 cell lines is presently not known.

GPC3 in HepG2 cells = GPC3 in HepG2 cells (Homo sapiens, UniProt P51654); test: Immunoprecipitation assay, HepG2 cell lysate; format: binding; set-up: endogenous in cells; host or cells: HepG2; details: HepG2 total cell lysate; data very preliminary
Method: (§2) Antibody beads were prepared by covalently linking 100 ul of Ni-NTA Sepharose (Amersham Biosciences) and 1 mg of anti-GPC3 scFv antibodies with 20 mM dimethyl pimelimidate. Then, 500 ul of HepG2 and Hep3B cell lysates were be mixed with 25 ul of antibody beads and incubated for 2 hr at 4° C. After extensive washing with PBST, antibody beads will be resuspended in 50 ul of SDS-PAGE loading buffer, boiled for 5 min, and subsequently subjected to western blotting analysis. […] The total cell lysates of Hep3B and HepG2 were incubated with a mixture of his-beads and G5S1, GES1, GES6 or 70SC control scFv antibodies individually. After washing, the his-beads complex was subjected to SDS-PAGE and western blot analysis. […] By contrast, the protein in HepG2 cells was precipitated by GES1, G5S1 and GES6 scFv antibodies. However, the data were very preliminary and need further verification.

[4] = tested on: GPC3-positive HepG2 cells and Hep 3B cells; test: Immunofluorescence staining binding analysis; format: cell-based, human; details: Hep 3B cells (FIG. 9A) and Hep G2 cells (FIG. 9B)
Method: HepG2, Hep3B, cells (2×10^5 cells/ml) were seeded on cover glass and fixed by incubating with equal volume of 8% freshly prepared ice-cold paraformaldehyde on ice for 15 min. After fixing, the cells were dehydrated in a sequential treatment of 70%, 95% and 99% methanol and rehydrated with 95% and 70% methanol. The slides were then overlaid with blocking buffer (1% BSA in 1×PBS) at room temperature (RT) for 1 hr. Following washing with 1×PBS, specific monoclonal mouse or scFv antibodies were incubated with cells at RT for one additional hr. Finally, their binding to GPC3 protein was detected by mouse anti-HA antibodies, followed by FITC-conjugated goat anti-mouse antibodies. Nuclei were counterstained with PI solution in parallel. The slides were examined using a Confocal Spectral Microscope Imaging System (TCS SP5, Leica). […] The partially purified scFv antibodies were examined for their binding activity to GPC3-positive HepG2 cells and Hep 3B cells.

Hep3B cells [5] = test: Cell migration (wounded monolayer) assay; format: cell-based, human; details: Hep3B monolayers wounded, 0.5 uM scFv, 24 hr
Method: For cell migration assays, 1×10^3 cells were incubated with anti-GPC3 antibodies at concentrations of 1 to 200 μg/ml for 48 hr before being transferred into a transwell migration system. The cells were plated onto a polycarbonate filter membrane with a pore size of 8 μm (upper layer) and incubated for different time interval at 37° C. in 5% CO2 incubator. Serum free medium containing 0.5 mM EDTA was used for washing off the cells from the lower part of the membrane to lower wells. The cells in the lower wells were collected with centrifugation at 3000 g for 5 min and perform direct cell counting under microscope. The mean growth rate (MGR) of cells after migration through the polycarbonate filter was determined by the equation: MGR=log 2 Nt−log2 N0/t, with N0 as initial cell number, Nt as final cell number and t as time period of cell incubation in days. […] To explore whether the GPC3 protein is essential for cell migration, Hep3B cells were cultured until confluence. The monolayers were wounded, cultured with medium containing 0.5 uM of G5 S1 or GES1 and two controls (NC-70sc or NC-spE) scFv antibodies and analyzed after 24, hr. […] The effect of G5S1 scFv was minimal and reached to the basal level obtained in medium without any scFv antibody.

GPC3 in Hep3B cells = target: T1, GPC3 in Hep3B cells (Homo sapiens, UniProt P51654); test: Immunoprecipitation assay, Hep3B cell lysate; format: binding; details: Hep3B total cell lysate; data very preliminary
T1 construct: endogenous in cells; host or cells: Hep3B
Method: as §2

HepG2 cells [6] = test: Soft agar colony formation assay, HepG2; format: cell-based, human; details: 0.5 μM scFv, 4 weeks
Method: as §1

HepG2 cells [7] = test: Cell cycle analysis (propidium iodide, FACS); format: cell-based, human
Method: Fixed cells were stained with propidium iodide and analyzed by FACS. The cell-cycle distribution of different phases was analyzed with FlowJo v 9.0. FIGS. 12 A, B and C show the results of cell cycle analysis. After treated with G5S1, GES1 or α-RTS6 (neg) scFv antibodies for 48 hrs, the adherent HepG2 cells were detached, washed, and exposed to 70% ethanol on 4° C. overnight. After washing, cells were incubated with […] propidium iodide and […] RNaseA. FACS was carried out and data were statistically analyzed by FlowJo software.

GPC3 [8] = target: T2, GPC3 (Homo sapiens, UniProt P51654); test: ELISA binding to commercially available GPC3 immobilized on plate wells; set-up: analysis of commercial GPC3_extracellular domain (ECD) and truncated (C185) proteins; purchased; details: partially purified scFv
Method: (§3) Nitrocellulose membranes were blocked with 5% skim milk in TBST for 1 hr. Polyclonal goat anti-chicken IgY light chain antibodies were added at 1:5000 dilution and incubated for an additional hr. The membranes were washed with TBST three times and the bound antibodies were detected by adding horseradish peroxidase (HRP)-conjugated donkey anti-goat Ig antibodies at 1:3000 dilutions. After three washings, the membranes were developed with diaminobenzidine (DAB) substrate until the desired intensity was reached. The IgY antibodies or the E. coli-expressed scFv antibodies were purified and incubated with the purified GPC3 protein or cellular lysates of GPC3-positive HepG2 and Hep3B cells immobilized on nitrocellulose membranes or ELISA plate wells. Their binding was subsequently detected by adding goat anti-mouse IgG or anti-chicken IgY light chain followed by HRP-conjugated donkey anti-goat Ig antibodies as described above.
HepG2, Hep3B, cells (2×10^5 cells/ml) was seeded on cover glass and fixed by incubating with equal volume of 8% freshly prepared ice-cold paraformaldehyde on ice for 15 min. After fixing, the cells were dehydrated in a sequential treatment of 70%, 95% and 99% methanol and rehydrated with 95% and 70% methanol. […] Finally, their binding to GPC3 protein was detected by mouse anti-HA antibodies, followed by FITC-conjugated goat anti-mouse antibodies. […]

GPC3 [9] = target: T2, GPC3; test: Western blot of GPC3 extracellular domain protein and hepatoma cell lysates; format: binding; set-up: purchased; details: commercial GPC3 extracellular domain protein under reducing condition; lysates of hepatoma cell lines
Method: as §3

[10] = tested on: GPC3-positive Hep3B, HepG2 and HepJ5 cells; test: Flow cytometry binding analysis; format: cell-based, human; details: 100 μg/ml
Method: A total of 2×10^6 HepG2, Hep3B, cells were harvested and fixed with 2% paraformaldehyde as described previously with minor modification (Leu et al., 2010). The GPC3 molecule expressed in these […] cells were detected by adding purified chicken scFv antibodies, followed by mouse anti-HA (1:200) and FITC-conjugated goat anti-mouse antibodies (1:200). The results were analyzed using the FACScan flow cytometer Negative controls were performed by omitting the primary scFv antibodies, while positive controls were performed using commercial polyclonal anti-human GPC3 antibodies (1:200) instead of home-made chicken anti-GPC3 scFv antibodies. […] The partially purified scFv antibodies were examined for their binding activity to GPC3-positive Hep3B, HepG2 and HepJ5 cells.

Hep3B xenograft = test: Tumor xenograft model, Ki-67 immunohistochemistry of tumor tissue; format: in vivo, NOD-SCID mice; details: 800 ug/mouse/per time i.v.; compared to untreated groups
Method: NOD-SCID mice were used. Briefly, 4-week-old female […] mice were injected subcutaneously with 4×10^6 of HepG2 and Hep3B cancer cells at a single dorsal site. At day 14, tumor-bearing mice were randomized into experimental groups (5 per group) and treated with anti-GPC3 antibodies and positive control with sorafenib accordingly. 400 ug or 800 ug of antibodies were given through intravenous (i.v.) injection every 3 days for 3 weeks. Tumor size was measured every 2 days with calipers until animals are sacrificed. At the time of sacrifice, tumors were dissected and weighted.
Tissue sections from xenograft tumor tissues in mice were de-waxed in xylene and rehydrated through graded alcohols. The antigen retrieval was carried out by heating the rehydrated tissues in 10 mM sodium citrate (pH 6.0) for 20 min. After washing with buffer containing 10 mM Tris-HCl (pH 7.4) and 150 mM sodium chloride, the sections were treated with 3% hydrogen peroxide for 5 min. Anti-Ki-67 antibodies (commercial polyclonal antibody) was be applied for 1 hr at room temperature. Optimal horseradish peroxidase-conjugated secondary antibodies and diaminobenzidine were added sequentially to detect the Ki-67 proliferation marker expression in the examined tissues. The slides were counterstained with GM hematoxylin solution. […]

## CNC(=O)c1cc(Oc2ccc(NC(=O)Nc3ccc(Cl)c(C(F)(F)F)c3)cc2)ccn1 [sorafenib]
Hep3B hepatoma cells
  tumor growth inhibition: 48.8%

## hGC33: Humanized GC33
[1]
  efficacy against the HepG2 xenograft relative to GC33: as effective as GC33

B1: GES1: chicken anti-GPC3 scFv antibody; heavy chain SEQ ID NO: 30, light chain SEQ ID NO: 38 (antibody, V domains shown)
VH: EVQLLESGGGLVQPGGSLRLSCAASGFTFSSFNMFWVRQAPGKGLEWVSWISSTGSRTKYADSVKGRFTISRDNSKNTLYLQMNSLRAEDTATYYCAKSASRGAGRIDAWGRGTLVTVSS
VL: ALTQPPSASGSPGQSITISCTGTGGSYGWYQQHAGKAPKLVIYNNNKRPSGVPDRFSGSKSGNTASLTVSGLQTDDEAVYYCGSRDSSYFGIFGGGTKLTVL
modifications: scFv linker
HepG2 cells [2]; 0, 0.5, 1, 2, 4 and 8 μM for 3 days
  inhibition of cell proliferation, concentration dependence: inhibited the cell proliferation in a dosage-dependent manner
HepG2 cells [2]; HepG2 cells, 0.1 μM, day 6
  suppression on cell proliferation: approximately 60%
Hep3B cells [3]
  inhibitory effect on colony formation: not as obvious
GPC3 in HepG2 cells
  precipitation of protein with predicted molecular weight of GPC3: precipitated
[4]
  binding signal to cell surface (immunofluorescence): various but significant binding signal
Hep3B cells [5]
  effect on cell migration: partial inhibitory effect
GPC3 in Hep3B cells
  precipitation of protein with predicted molecular weight of GPC3: precipitated
HepG2 cells [6]
  inhibitory effect on colony formation: significant inhibitory effort on colony formation
HepG2 cells [7]; 0.5 μM, 48 hrs
  cell cycle arrest: arrested in G1 phase
HepG2 cells [7]; treated 48 hrs
  cell population in subG1 stage: 28.8%
GPC3 [8]
  binding activity to GPC3 on ELISA: reacted significantly with GPC3
GPC3 [9]
  fragment of GPC3 identified on western blot: can identify C-terminus fragment of GPC3 and GPC3 in cellular lysates
[10]
  binding signal to hepatoma cells (flow cytometry): various but significant binding signal
Hep3B xenograft
  Ki-67 expression in tumor sections: reduced level of Ki-67 expression

— patent US20190016818A1, “ANTIBODIES AGAINST GLYPICAN-3 AND THEIR USES IN CANCER DIAGNOSIS AND TREATMENT” (LA JOLLA BIOLOGICS, INC., priority 2015, published 2019)
